The record followed here is patent US20240003906A1, “Biomarker of Fibrosis” (Nordic Bioscience A/S, priority 2020, published 2024).

Where no end group is shown, it is not given here.

Experiment [1] has as its target T1, dimeric truncated peptide (CKAGGFAPYY×CKAGGFAPYY (SEQ ID NO: 18)) (Homo sapiens, UniProt P02461).
T1 construct: purchased Genscript, Piscataway, NJ, USA; host or cells: synthetic peptide
Put plainly: Direct sandwich ELISA specificity towards dimeric peptides. Format: binding. The note with it: NBH-242 as capture and detection antibody, FIG. 3. Here is the method:
(§1) 96-well plates precoated with streptavidin (Roche Diagnostic's, Hvidovre, Denmark, cat. No. 11940279) were coated with 100 μL of the biotinylated antibody targeting the CTX-III fragment diluted 1+100 in assay buffer (50 mM PBS, 1% BSA, 1% Tween-20, 150 mM NaCl, pH 7.4) for 30 minutes at room temperature rotating at 300 rounds-per-minute (rpm). Unbound biotinylated capture antibody was discarded, and the wells were washed with washing buffer (25 mM TRIZMA, 50 mM NaCl, 0.036% Bronidox L5, 0.1% Tween 20) using a standardized ELISA plate washing machine (BioTek® Instruments, Microplate washer, ELx405 Select CW, Winooski, USA). All samples and the detection antibody were diluted in incubation buffer (50 mM PBS, 1% BSA, 1% Tween-20, 150 mM NaCl, 5% Liquid II, pH 7.4), with the detection antibody being diluted 1+100. 20 μL of sample material and controls were incubated with 100 μL HRP labelled detection antibody targeting the CTX-III fragment, at 4° C. for 20 hours and agitated at 300 rpm. […] Finally, the luminescence emitted was quantified with an ELISA reader (VersaMAX; Molecular Devices, Wokingham Berkshire, UK) set to measure the luminescence at 450 nm and 650 nm. […]
(§2) The lower limit of detection (LLOD) was determined from 21 zero samples (i.e. incubation buffer) and calculated as the mean+3× standard deviation, whereas the upper limit of detection (ULOD) was determined from 10 measurements of the dimeric selection peptide calculated as the mean+3× standard deviation. The inter- and intra-assay variation was determined by 10 independent runs of five quality control (QC) samples with minimum three of these being healthy human plasma EDTA samples (Valley Biomedical, Winchester, VA, USA), with each run consisting of double determinations of the samples. […] Assay linearity was determined by calculating the percentage recovery (100%±20%) of a 1:6-fold dilution of healthy human plasma EDTA samples with a significant concentration, using the undiluted sample as reference. […] Subsequently, the percentage recovery between the control sample and the low or high interferent samples were calculated.

Experiment [2] concerns the target T2, dimeric elongated peptide (CKAGGFAPYYGD×CKAGGFAPYYGD (SEQ ID NO: 17)) (Homo sapiens, UniProt P02461).
T2 construct: purchased Genscript, Piscataway, NJ, USA; host or cells: synthetic peptide
The experiment is described as above. The note with it: NBH-242 as capture and detection antibody, FIG. 3. Format: binding. Here is the method: as §1, §2

The target of experiment [3] is T3, Rat dimeric peptide (CKSGGFSPYYG×CKSGGFSPYYG) (Rattus norvegicus, UniProt P13941).
T3 construct: purchased Genscript, Piscataway, NJ, USA; host or cells: synthetic peptide
The experiment is described as above. Format: binding. The note with it: NBH-242 as capture and detection antibody, FIG. 3. The procedure:
as §1, §2

Experiment [4] concerns the target T4, Selection peptide KAGGFAPYYG (human).
T4 construct: Synthetic monomeric peptide (Genscript); also called human selection peptide
T4 peptide: KAGGFAPYYG
Put plainly: indirect competitive ELISA, selection peptide competing with coated biotin-KAGGFAPYYG
Background: In an ELISA, binding on a coated surface is turned into a signal by an enzyme label.

Experiment [5] deals with T5, Elongated peptide KAGGFAPYYGD
T5 peptide: KAGGFAPYYGD
Put plainly: indirect competitive ELISA (final inhibition).

Experiment [6] concerns the target T6, Truncated peptide KAGGFAPYY
T6 peptide: KAGGFAPYY
Put plainly: indirect competitive ELISA (final inhibition).

In experiment [7] the target is T7, Dimeric elongated peptide CKAGGFAPYYGD x CKAGGFAPYYGD (also: homodimer linked by Cys1 disulphide, disulfide at 1, other end not in the chain).
T7 peptide: CKAGGFAPYYGD
Put plainly: direct sandwich ELISA, NBH-242 as capture and detection antibody. The procedure:
(§3) Unbound primary antibody and sample was discarded, and the wells were washed with washing buffer. Subsequently, 100 μL chemiluminescence substrate was added to the wells, plates were incubated for 3 minutes at 20° C. in the dark rotating 300 rpm. Finally, the luminescence emitted was quantified with an ELISA reader (VersaMAX; Molecular Devices, Wokingham Berkshire, UK) set to measure the luminescence at 450 nm and 650 nm. […] Unknown sample measurements were interpolated with the standard curve to obtain the concentration (ng/mL) of the CTX-III fragment.
(§4) By plotting the calculated percentage recovery, the specificity of the antibodies in the direct sandwich ELISA towards the dimeric peptides was tested.

Experiment [8] addresses T8, Rat dimeric peptide CKSGGFSPYYG x CKSGGFSPYYG (rat, also: homodimer cross-linked by disulphide N-terminal to antibody binding site, disulfide at 1, other end not in the chain).
T8 construct: also called dimeric rat peptide; rat selection peptide
T8 peptide: CKSGGFSPYYG
The experiment is described as above. The procedure: as §3, §4

Experiment [9] concerns the target T9, Dimeric truncated peptide CKAGGFAPYY x CKAGGFAPYY (also: homodimer linked by Cys1 disulphide, disulfide at 1, other end not in the chain).
T9 peptide: CKAGGFAPYY
The experiment is described as above. The procedure: as §3, §4

Experiment [10] has as its target T10, Dimeric selection peptide CKAGGFAPYYG x CKAGGFAPYYG (human, also: homodimer linked by Cys1 disulphide, disulfide at 1, other end not in the chain).
T10 construct: Synthetic dimer of two identical strands; standard of the sandwich ELISA; also called dimeric human selection peptide
T10 peptide: CKAGGFAPYYG
The experiment is described as above. The procedure:
as §3, §4

B1: NBH-242: neo-epitope specific antibody directed towards the C-terminal neo-epitope in the C-terminal telopeptide of type III collagen (CT-III), …-COOH (antibody)
heavy: QVQLQQSGAELVRPGVSVKISCKGSGHTFTDHGMHWVKQSQAKSLEWIGVISTYYGDATYNQKFKGKATMTVDKSSSTAYMELARLTSEDSAIYYCARSMGGNYVGTGFAYWGQGTLVTVSAAKTTAPSVYPLAPVCGDTTGSSVTLGCLVKGYFPEPVTLTWNSGSLSSGVHTFPAVLQSDLYTLSSSVTVTSSTWPSQSITCNVAHPASSTKVDKKIEPRGPTIKPCPPCKCPAPNLLGGPSVFIFPPKIKDVLMISLSPIVTCVVVDVSEDDPDVQISWFVNNVEVHTAQTQTHREDYNSTLRVVSALPIQHQDWMSGKEFKCKVNNKDLPAPIERTISKPKGSVRAPQVYVLPPPEEEMTKKQVTLTCMVTDFMPEDIYVEWTNNGKTELNYKNTEPVLDSDGSYFMYSKLRVEKKNWVERNSYSCSVVHEGLHNHHTTKSFSRTPGK
light: DIVMTQAAPSVPVTPGESVSISCRSSKSLLHSNGNTYLYWFLQRPGQSPQLLIYRMSNLASGVPDRFSGSGSGTAFTLRISRVEAEDVGVYYCMQHLEFPLTFGAGTKLELKRADAAPTVSIFPPSSEQLTSGGASVVCFLNNFYPKDINVKWKIDGSERQNGVLNSWTDQDSKDSTYSMSSTLTLTKDEYERHNSYTCEATHKTSTSPIVKSFNRNE
On to B1, for which the “reactivity towards the dimeric truncated peptide” value in experiment [1] was “no reactivity”. For the same molecule, the “reactivity towards the dimeric elongated peptide” value in [2] is given as “no reactivity”. In experiment [3], the “reactivity towards the dimeric rat peptide” value was “no reactivity”.

B2: monoclonal antibody NBH-242 (antibody, mouse IgG2a, kappa, V domains shown)
VH: QVQLQQSGAELVRPGVSVKISCKGSGHTFTDHGMHWVKQSQAKSLEWIGVISTYYGDATYNQKFKGKATMTVDKSSSTAYMELARLTSEDSAIYYCARSMGGNYVGTGFAYWGQGTLVTVSA
VL: DIVMTQAAPSVPVTPGESVSISCRSSKSLLHSNGNTYLYWFLQRPGQSPQLLIYRMSNLASGVPDRFSGSGSGTAFTLRISRVEAEDVGVYYCMQHLEFPLTFGAGTKLELKR
notes: In the sandwich ELISA the antibody was biotinylated (capture) and HRP-labelled (detection); also called monoclonal NBH-242 antibody; capture antibody
As for B2, the binding result in [4] is given as “binds”; in experiment [5], “no binding”; in experiment [6], “no binding”; in [7], “no binding”; in experiment [8], “no binding”; in experiment [9], “no binding”. Moreover, in experiment [10], the binding result is given as “binds”.
